Legend:
P16 peptide = system: T1, P16 peptide
T1 sequence: RRWWRRYY

P17 peptide = system: T2, P17 peptide
T2 sequence: RRRYWYYR

P18 peptide = system: T3, P18 peptide
T3 sequence: RRYWYWRR

Substance: Human tyrosinase
- reduction of human tyrosinase activity at 200 µM (L-dopa substrate) (P16 peptide): human tyrosinase activity was reduced by 30% for P16
- reduction of human tyrosinase activity at 200 µM (L-dopa substrate) (P17 peptide): 12% for P17
- reduction of human tyrosinase activity at 200 µM (L-dopa substrate) (P18 peptide): 25% for P18
